Assay results reported in paper doi:10.1101/2024.09.04.610023 (bioRxiv, 2024).

T1: Purified human GST-PABPN1 (human, UniProt Q86U42-1 1-306)
T1 sequence (looked up): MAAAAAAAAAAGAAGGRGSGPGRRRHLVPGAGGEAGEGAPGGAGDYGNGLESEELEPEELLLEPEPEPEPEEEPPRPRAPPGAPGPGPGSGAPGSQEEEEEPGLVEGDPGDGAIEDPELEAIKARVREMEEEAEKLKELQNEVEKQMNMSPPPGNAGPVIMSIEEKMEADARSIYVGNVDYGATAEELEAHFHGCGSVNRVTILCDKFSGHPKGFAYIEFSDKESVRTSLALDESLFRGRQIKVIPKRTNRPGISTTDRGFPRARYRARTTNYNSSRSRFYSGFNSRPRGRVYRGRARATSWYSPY


Biological target: T1, Purified human GST-PABPN1
Assay: peptide or protein array

binding result | Binder
binds | QPKFKRFLRHPLPK (peptide, UniProt Q63053 330-343, looked up) [Arc array peptide 330-343]
binds | TQIFEDPREFLSHL (peptide, UniProt Q63053 211-224, looked up) [Arc array peptide 211-224]
binds | LWRKRDLYQTLYVD (peptide, UniProt Q63053 302-315, looked up) [Arc array peptide 302-315]
